This is an account of results in patent US20140086935A1 (Bayer, published 2014).

Substitutions are numbered along the chain they refer to.

The Kd is the constant that tells how readily two partners part at equilibrium. Read a high Kd as weaker binding.

B1: MS-BW-6 (Fab, V domains shown)
VH: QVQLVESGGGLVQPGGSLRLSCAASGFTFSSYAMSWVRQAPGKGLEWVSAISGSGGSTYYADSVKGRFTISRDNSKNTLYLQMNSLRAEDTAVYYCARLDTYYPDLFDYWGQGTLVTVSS
VL: DIVLTQPPSVSGAPGQRVTISCSGSSSNIGSNYVSWYQQLPGTAPKLLIYDNNQRPSGVPDRFSGSKSGTSASLAITGLQSEDEADYYCQSYDQRKWVFGGGTKLTVLG
notes: Fab, FLAG + Strep-tag II; not tied by name
B2: MS-BW-13 (Fab, V domains shown)
VH: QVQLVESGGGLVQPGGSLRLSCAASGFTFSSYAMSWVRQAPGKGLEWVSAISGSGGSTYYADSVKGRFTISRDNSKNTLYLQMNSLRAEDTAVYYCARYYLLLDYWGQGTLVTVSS
VL: DIELTQPPSVSVAPGQTARISCSGDALGDKYASWYQQKPGQAPVLVIYDDSDRPSGIPERFSGSNSGNTATLTISGTQAEDEADYYCQSWDIHPFDVVFGGGTKLTVLG
notes: as for B1
B3: MS-BW-12 (Fab, V domains shown)
VH: QVQLQQSGPGLVKPSQTLSLTCAISGDSVSSNSAAWNWIRQSPGRGLEWLGRTYYRSKWYNDYAVSVKSRITINPDTSKNQFSLQLNSVTPEDTAVYYCARGYADISFDYWGQGTLVTVSS
VL: DIALTQPASVSGSPGQSITISCTGTSSDVGGYNYVSWYQQHPGKAPKLMIYDVSNRPSGVSNRFSGSKSGNTASLTISGLQAEDEADYYCQSYDMIARYPVFGGGTKLTVLG
notes: as for B1
B4: MS-BW-23 (Fab, V domains shown)
VH: QVQLVQSGAEVKKPGASVKVSCKASGYTFTSYYMHWVRQAPGQGLEWMGWINPNSGGTNYAQKFQGRVTMTRDTSISTAYMELSSLRSEDTAVYYCARIMWSDYGQLVKGGDIWGQGTLVTVSS
VL: B3 VL with M95V, I96F, A97P, R98I, Y99N, P100R
notes: as for B1
B5: MS-BW-32 (Fab, V domains shown)
VH: QVQLVQSGAEVKKPGSSVKVSCKASGGTFSSYAISWVRQAPGQGLEWMGGIIPIFGTANYAQKFQGRVTITADESTSTAYMELSSLRSEDTAVYYCARTKYVGSEDVWGQGTLVTVSS
VL: B3 VL with M95F, I96S, A97H, R98Y, Y99F, P100F
notes: as for B1
B6: MS-BW-22 (Fab, V domains shown)
VH: QVQLVQSGAEVKKPGESLKISCKGSGYSFTSYWIGWVRQMPGKGLEWMGIIYPGDSDTRYSPSFQGQVTISADKSISTAYLQWSSLKASDTAMYYCARFRAYGDDFYFDVWGQGTLVTVSS
VL: B3 VL with Y93W, M95N, I96L, A97K, R98M, Y99P, P100V
notes: as for B1
B7: MS-BW-62 (Fab, V domains shown)
VH: QVQLVQSGAEVKKPGESLKISCKGSGYSFTSYWIGWVRQMPGKGLEWMGIIYPGDSDTRYSPSFQGQVTISADKSISTAYLQWSSLKASDTAMYYCARLFTYPFLYFDVWGQGTLVTVSS
VL: DIALTQPASVSGSPGQSITISCTGTSSDVGGYNYVSWYQQHPGKAPKLMIYDVSNRPSGVSNRFSGSKSGNTASLTISGLQAEDEADYYCQSDFPVMVFGGGTKLTVLG
notes: as for B1
B8: MS-BW-24 (Fab, V domains shown)
VH: B7 VH with L99Y, F100Y, T101V, Y102T, P103D, F104T, L105A, V109Y
VL: B7 VL with F94L, P95Y, V96F, M97P
notes: as for B1
B9: MS-BW-63 (Fab, V domains shown)
VH: B7 VH with L99I, F100L, Y102G, P103H, F104V, Y106L, V109Y
VL: B7 VL with F94N, V96Y, M97L
notes: as for B1
B10: MS-BW-36 (Fab, V domains shown)
VH: QVQLVQSGAEVKKPGESLKISCKGSGYSFTSYWIGWVRQMPGKGLEWMGIIYPGDSDTRYSPSFQGQVTISADKSISTAYLQWSSLKASDTAMYYCARYRYPHMFDFWGQGTLVTVSS
VL: DIELTQPPSVSVAPGQTARISCSGDALGDKYASWYQQKPGQAPVLVIYDDSDRPSGIPERFSGSNSGNTATLTISGTQAEDEADYYCQSYDLRYSHVFGGGTKLTVLG
notes: as for B1
B11: MS-BW-58 (Fab, V domains shown)
VH: QVQLQQSGPGLVKPSQTLSLTCAISGDSVSSNSAAWNWIRQSPGRGLEWLGRTYYRSKWYNDYAVSVKSRITINPDTSKNQFSLQLNSVTPEDTAVYYCARWMTPPGHYYGYTFDVWGQGTLVTVSS
VL: B10 VL with Y90W, L92P, R93S, Y94H, S95Y, H96Y
notes: as for B1
B12: MS-BW-10 (Fab, V domains shown)
VH: QVQLVQSGAEVKKPGASVKVSCKASGYTFTSYYMHWVRQAPGQGLEWMGWINPNSGGTNYAQKFQGRVTMTRDTSISTAYMELSSLRSEDTAVYYCARLVGIVGYKPDELLYFDVWGQGTLVTVSS
VL: DIELTQPPSVSVAPGQTARISCSGDALGDKYASWYQQKPGQAPVLVIYDDSDRPSGIPERFSGSNSGNTATLTISGTQAEDEADYYCQSYDYSLLVFGGGTKLTVLG
notes: as for B1
B13: MS-BW-11 (Fab, V domains shown)
VH: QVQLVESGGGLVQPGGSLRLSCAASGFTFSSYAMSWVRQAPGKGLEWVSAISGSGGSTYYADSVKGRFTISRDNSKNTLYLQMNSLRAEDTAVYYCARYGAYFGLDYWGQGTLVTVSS
VL: B12 VL with Y92F, S93N, L94F, L95H
notes: as for B1
B14: MS-BW-7 (Fab, V domains shown)
VH: QVQLVQSGAEVKKPGSSVKVSCKASGGTFSSYAISWVRQAPGQGLEWMGGIIPIFGTANYAQKFQGRVTITADESTSTAYMELSSLRSEDTAVYYCARTYYYFDSWGQGTLVTVSS
VL: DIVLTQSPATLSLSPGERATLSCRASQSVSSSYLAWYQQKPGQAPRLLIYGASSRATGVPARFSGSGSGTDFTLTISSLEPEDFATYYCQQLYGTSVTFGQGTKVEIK
B15: MS-BW-9 (Fab, V domains shown)
VH: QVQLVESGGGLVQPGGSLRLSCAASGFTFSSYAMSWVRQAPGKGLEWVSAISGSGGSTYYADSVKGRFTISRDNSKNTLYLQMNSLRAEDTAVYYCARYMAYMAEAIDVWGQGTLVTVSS
VL: DIVLTQPPSVSGAPGQRVTISCSGSSSNIGSNYVSWYQQLPGTAPKLLIYDNNQRPSGVPDRFSGSKSGTSASLAITGLQSEDEADYYCQSYDGFKTHVFGGGTKLTVLG
notes: as for B1
B16: MS-BW-5 (Fab, V domains shown)
VH: QVQLVQSGAEVKKPGSSVKVSCKASGGTFSSYAISWVRQAPGQGLEWMGGIIPIFGTANYAQKFQGRVTITADESTSTAYMELSSLRSEDTAVYYCARGLYWAVYPYFDFWGQGTLVTVSS
VL: B15 VL with Y92R, G94F, F95N, K96R, T97G, H98P
notes: as for B1
B17: MS-BW-18 (Fab, V domains shown)
VH: B6 VH with F99L, R100V, A101G, Y102G, D104Y, F106L, Y107M, V110S
VL: DIALTQPASVSGSPGQSITISCTGTSSDVGGYNYVSWYQQHPGKAPKLMIYDVSNRPSGVSNRFSGSKSGNTASLTISGLQAEDEADYYCQSYDDMQFVFGGGTKLTVLG
notes: as for B1
B18: MS-BW-31 (Fab, V domains shown)
VH: B7 VH with F100Y, T101A, Y102D, P103A, F104D, L105I, V109Y
VL: B17 VL with D95L, M96S, Q97P, F98R
notes: as for B1
B19: MS-BW-30 (Fab, V domains shown)
VH: B6 VH with F99Y, R100A, A101G, Y102H, G103Q, D104Y, D105E, Y107F, V110F
VL: B10 VL with Y90R, L92P, R93V, Y94G, S95F, H96P
notes: as for B1
B20: MS-BW-37 (Fab, V domains shown)
VH: B7 VH with T101A, Y102G, P103L, F104E, V109Y
VL: B17 VL with D95L, M96R, Q97N, F98R
notes: as for B1
B21: MS-BW-29 (Fab, V domains shown)
VH: B7 VH with L99H, F100D, T101F, Y102D, P103G, F104S, L105I, Y106F, F107M, V109F
VL: B17 VL with D95V, M96T, Q97P, F98R
notes: as for B1
B22: MS-BW-15 (Fab, V domains shown)
VH: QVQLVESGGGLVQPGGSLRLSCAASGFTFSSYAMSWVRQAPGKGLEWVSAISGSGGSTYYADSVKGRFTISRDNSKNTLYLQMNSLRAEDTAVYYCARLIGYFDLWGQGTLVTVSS
VL: DIALTQPASVSGSPGQSITISCTGTSSDVGGYNYVSWYQQHPGKAPKLMIYDVSNRPSGVSNRFSGSKSGNTASLTISGLQAEDEADYYCQSYDVLDSEVFGGGTKLTVLG
notes: as for B1
B23: MS-BW-19 (Fab, V domains shown)
VH: QVQLVQSGAEVKKPGESLKISCKGSGYSFTSYWIGWVRQMPGKGLEWMGIIYPGDSDTRYSPSFQGQVTISADKSISTAYLQWSSLKASDTAMYYCARYVTYGYDDYHFDYWGQGTLVTVSS
VL: B22 VL with Y93W, V95I, L96N, D97H, S98A, E99I
notes: as for B1
B24: MS-BW-20 (Fab, V domains shown)
VH: QVQLVQSGAEVKKPGSSVKVSCKASGGTFSSYAISWVRQAPGQGLEWMGGIIPIFGTANYAQKFQGRVTITADESTSTAYMELSSLRSEDTAVYYCARSGYLDYWGQGTLVTVSS
VL: B22 VL with V95Y, L96Y, S98Y, E99G
notes: as for B1

T1 sequence (P30120 24-217 limits assumed): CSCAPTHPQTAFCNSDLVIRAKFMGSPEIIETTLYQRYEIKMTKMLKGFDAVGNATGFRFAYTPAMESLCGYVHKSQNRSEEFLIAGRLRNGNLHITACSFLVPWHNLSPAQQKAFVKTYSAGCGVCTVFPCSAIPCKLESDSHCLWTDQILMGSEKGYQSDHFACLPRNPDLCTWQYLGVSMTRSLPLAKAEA

The target in the first assay is T1, rat TIMP-1 (rat, UniProt P30120 24-217). Put plainly: SPR (BIAcore), TIMP-1 coupled to chip, monovalent Fab. The protocol:
For affinity determination, monomeric fractions of affinity and SEC purified Fab fragments or purified IgG1 molecules were used. All experiments were conducted in HBS buffer at a flow rate of 20 μl/min at 25° C. on a BIAcore™ instrument. Antigens in 100 mM sodium acetate pH 5.0 were coupled to a CM 5 sensor chip using standard EDC-NHS coupling chemistry. […] All sensograms were fitted globally using BIA evaluation software. For monovalent Fab fragments a monovalent fit (Langmuir binding) and for IgGs a bivalent fit was applied.
B1: the Kd was ~68 nM.

Consider B2, for which the Kd is ~939 nM.

With B3, the Kd was ~419 nM.

On to B4, for which the Kd was ~207 nM.

With B5, the dissociation constant (Kd) was ~92 nM.

Molecule B6 returned a Kd of 35 nM.

Regarding B7, the Kd is ~36 nM.

B8 showed a Kd of 23 nM.

As for B9, the Kd is ~14 nM.

On to B10, for which the Kd was ~42 nM.

On to B11, for which the Kd is ~138 nM.

Turning to B12, the Kd is ~200 nM.

As for B13, the Kd is ~200 nM.

In the case of B14, the Kd was ~168 nM.

In the case of B15, the Kd is ~256 nM.

Turning to B16, the dissociation constant (Kd) is ~210 nM.

With B17, the Kd was ~153 nM.

With B18, the Kd was ~13 nM.

Consider B19, for which the Kd was ~36 nM.

B20 showed a Kd of 10 nM.

Turning to B21, the Kd is ~214 nM.

For the molecule B22, the Kd is ~80 nM.

On to B23, for which the Kd was ~187 nM.

B24: the Kd is ~70 nM.

Another assay addresses T1, rat TIMP-1. The assay is described as follows: cell-based or functional assay.
Regarding B1, the “IC50 in rat protease assay” value is ~100 nM.

As to B3, the “IC50 in rat protease assay” value is > 300 nM.

Take B4: the “IC50 in rat protease assay” value was > 300 nM.

On to B5, for which the “IC50 in rat protease assay” value is > 100 nM.

With B6, the “IC50 in rat protease assay” value worked out at 65 nM.

As to B7, the “IC50 in rat protease assay” value is 19 nM.

As to B8, the “IC50 in rat protease assay” value was 20 nM.

Take B9: the “IC50 in rat protease assay” value turned out to be 20 nM.

Consider B10, for which the “IC50 in rat protease assay” value is ~75 nM.

B12: the “IC50 in rat protease assay” value was ~30 nM.

Consider B13, for which the “IC50 in rat protease assay” value is > 300 nM.

With B14, the “IC50 in rat protease assay” value is > 300 nM.

As to B15, the “IC50 in rat protease assay” value was > 300 nM.

As for B17, the “IC50 in rat protease assay” value is > 300 nM.

Regarding B18, the “IC50 in rat protease assay” value is > 100 nM.

Turning to B19, the “IC50 in rat protease assay” value is > 100 nM.

On to B20, for which the “IC50 in rat protease assay” value is > 100 nM.

As to B21, the “IC50 in rat protease assay” value was > 100 nM.

For B22, the “IC50 in rat protease assay” value is ~200 nM.

For B23, the “IC50 in rat protease assay” value is > 300 nM.

Turning to B24, the “IC50 in rat protease assay” value was > 300 nM.
